Reference: article PMC7092949 (Biochemical and Biophysical Research Communications, 2004)

Biological target: T1, HR-N (SN50) peptide of the SARS-CoV spike protein (SARS-CoV, UniProt P59594 903-952)
T1 peptide: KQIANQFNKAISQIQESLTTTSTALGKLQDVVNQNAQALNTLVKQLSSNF
Test: circular dichroism

B1: HR-C (SC40) peptide of the SARS-CoV spike protein (peptide)
peptide: LGDISGINASVVNIQKEIDRLNEVAKNLNESLIDLQELGK
- binding result: binds
